According to patent US20160145343A1:

Key:
[1] = target: SEQ ID NO: 346 glycopeptide with TF-antigen at Thr4; test: ELISA on coated glycopeptide, antibody 0.01 mg/ml, mean of 3
[2] = target: SEQ ID NO: 346 glycopeptide with Tn-antigen at Thr4, Thr9 and Thr16; test: as above
[3] = target: SEQ ID NO: 346 glycopeptide with TF-antigen at Ser5; test: as above
[4] = target: SEQ ID NO: 346 glycopeptide with TF-antigen at Thr9; test: as above
[5] = target: SEQ ID NO: 346 glycopeptide with TF-antigen at Thr4 and Thr9; test: as above
[6] = target: SEQ ID NO: 346 glycopeptide with TF-antigen at Thr16; test: as above
[7] = target: Synthetic peptide …; test: ELISA on coated peptide, antibody 0.01 mg/ml, mean of 3
Synthetic peptide (…)2 = test: as above
[8] = target: Normal MUC1 on non-transformed MCF-10A cells and on normal tissue (human) (UniProt P15941); test: flow cytometry, MCF10a cells
BSA = BSA (UniProt P02769); test: ELISA on coated BSA, antibody 0.01 mg/ml, mean of 3
[9] = target: Normal MUC1 on non-transformed MCF-10A cells and on normal tissue (human) (UniProt P15941); test: flow cytometry, MCF10a cells, secondary antibody only
[10] = target: Normal MUC1 on non-transformed MCF-10A cells and on normal tissue (human) (UniProt P15941); test: immunohistochemistry, colon tissue microarray
[11] = target: Normal MUC1 on non-transformed MCF-10A cells and on normal tissue (human) (UniProt P15941); test: immunohistochemistry, colon tissue microarray, normal samples

Chain of Synthetic peptide (…)2 (peptide, as listed by the source): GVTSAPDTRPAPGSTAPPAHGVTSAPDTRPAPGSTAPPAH
Chain of BSA (P02769 25-607 limits assumed): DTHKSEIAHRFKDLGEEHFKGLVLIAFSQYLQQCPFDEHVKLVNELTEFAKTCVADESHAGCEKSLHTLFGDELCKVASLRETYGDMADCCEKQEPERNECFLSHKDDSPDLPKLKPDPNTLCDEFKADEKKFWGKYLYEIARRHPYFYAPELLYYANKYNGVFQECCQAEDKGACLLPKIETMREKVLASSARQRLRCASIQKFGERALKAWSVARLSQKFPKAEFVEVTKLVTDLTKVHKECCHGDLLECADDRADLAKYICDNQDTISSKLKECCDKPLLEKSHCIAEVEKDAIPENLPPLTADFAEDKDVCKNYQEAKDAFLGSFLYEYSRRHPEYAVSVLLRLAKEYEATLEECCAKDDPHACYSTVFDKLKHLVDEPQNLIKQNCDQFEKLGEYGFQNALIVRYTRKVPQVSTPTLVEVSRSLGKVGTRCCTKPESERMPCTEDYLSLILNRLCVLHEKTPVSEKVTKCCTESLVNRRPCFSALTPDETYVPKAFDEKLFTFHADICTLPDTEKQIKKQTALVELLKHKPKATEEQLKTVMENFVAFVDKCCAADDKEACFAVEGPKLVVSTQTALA

Substance: VU-4H5 (Abnova), mouse anti-MUC1 antibody
- ELISA absorbance at 450 nm [1]: 1.8 absorbance
- ELISA absorbance at 450 nm [2]: 0.1 absorbance
- ELISA absorbance at 450 nm [3]: 1.8 absorbance
- ELISA absorbance at 450 nm [4]: 0.1 absorbance
- ELISA absorbance at 450 nm [5]: 0.1 absorbance
- ELISA absorbance at 450 nm [6]: 1.9 absorbance
- ELISA absorbance at 450 nm [7]: 1.9 absorbance
- ELISA absorbance at 450 nm (Synthetic peptide (…)2): 2.5 absorbance
- percentage of APC+ stained cells [8]: 3.85%
- ELISA absorbance at 450 nm (BSA): 0.1 absorbance

Substance: M-2nd. (APC-labeled secondary antibody only control for the mouse antibodies)
- percentage of APC+ stained cells [9]: 0.6%

Substance: Hu-2nd. (APC-labeled secondary antibody only control for the human antibodies)
- percentage of APC+ stained cells [9]: 0.25%

Substance: HMPV (BD Biosciences), mouse anti-MUC1 antibody
- samples MUC1+ by staining (of 6 normal samples) [10]: 3
- MUC1+ samples stained (of 3 MUC1+ normal samples) [11]: 3

Substance: VU-3C6 (Abcam), mouse anti-MUC1 antibody
- ELISA absorbance at 450 nm [1]: 2 absorbance
- ELISA absorbance at 450 nm [2]: 2.4 absorbance
- ELISA absorbance at 450 nm [3]: 2 absorbance
- ELISA absorbance at 450 nm [4]: 2.4 absorbance
- ELISA absorbance at 450 nm [5]: 2.4 absorbance
- ELISA absorbance at 450 nm [6]: 1.5 absorbance
- ELISA absorbance at 450 nm [7]: 1.5 absorbance
- ELISA absorbance at 450 nm (Synthetic peptide (…)2): 2.3 absorbance
- percentage of APC+ stained cells [8]: 99.2%
- ELISA absorbance at 450 nm (BSA): 0.2 absorbance
